# Molecular target: the molecule itself
# Experiment: SEC; Superdex 200 10/300 GL; recombinant LITAF constructs; wild type LITAF kept in detergent
protein,measurement,value
"wild type LITAF (full length, recombinant) (natural protein, human, UniProt Q99732 1-161, looked up, Lipopolysaccharide-induced tumour necrosis factor-alpha factor (LITAF, SIMPLE), human, full length wild type; Kept soluble with detergent (1% DDM or 1% FC12 at lysis, 0.04% DDM or 0.125% FC12 afterwards); also called LITAF WT; full length wild type LITAF protein; source: C43(DE3) BL21 E. coli, purified in detergent (Ni-NTA, ULP1 cleavage, SEC; DDM or FC12); not shown: His6, N-terminal, cleaved; …) MSVPGPYQAATGPSSAPSAPPSYEETVAVNSYYPTPPAPMPGPTTGLVTGPDGKGMNPPSYYTQPAPIPNNNPITVQTVYVQHPITFLDRPIQMCCPSCNKMIVSQLSYNAGALTWLSCGSLCLLGCIAGCCFIPFCVDALQDVDHYCPNCRALLGTYKRL",binding result,binds
